According to patent US9598479B2, “Nanoparticle-peptide compositions” (Midatech Ltd., priority 2011, dated 2017):
Numbered stars: 1 amine (or outer) side, 2 acyl side, 3 side chain; on linkers, the order of the positions; unused ones are H or OH. Square brackets hold non-standard residues; d marks the D form. Ends that are not written are not given here. Cysteamide = C(CS[*:3])N[*:1]; Mpa = O=C(O)CCS

Legend:
[1] = test system: B3Z (OVA peptide specific T cell line); experiment: B3Z T cell activation (β-galactosidase) measure of antigen presentation; assay type: cell-based, mouse; settings: for processing and presentation of SIINFEKL from GNP, CTL-based method: LKb cells pulsed 2 h with GNP equivalent to 1, 0.1 or 0.01 ug/mL peptide, overnight co-culture with B3Z, FIG. 1E
Description: (§1) Next, GNPs were pulsed to the equivalent of 1 ug/mL peptide (Green), 0.1 ug/mL (Blue), or 0.01 ug/mL (Red). After two hours, cells were washed, and subjected to (A-D) flow cytometric labelling with 25.D1.16 (Angel) antibody, or (E) combined with B3Z CTL for overnight co-culture. The next day, cells were lysed and Beta-galactosidase activity was measured.
Another form of epitope-specific antigen presentation is the measurement of T cell activation by the MHCI peptide complex. Here, we used B3Z (OVA peptide specific T cell line), which recognizes […] (SEQ ID NO: 2) the context of K^b. As a convenient measure, this T cell line contains β-galactosidase cloned with the NFAT promoter. Upon peptide recognition and T cell activation, β-galactosidase is expressed and conversion of a detectible substrate serves as an excellent measure of antigen presentation to T cells.
To evaluate this method, we performed a similar experiment as above. LK^b cells were pulsed with […] (SEQ ID NO: 2) peptide, washed, and then co-incubated with B3Z T cell line overnight. The next day, cells were lysed and β-galactosidase was measured using a luminescent substrate. As expected, the resolution of this method was similar to the previous method with the limit of detection at approximately 5 ng/mL.
The […]:Kb-specific T hybridoma (B3Z) (SEQ ID NO: 2) expresses (β-galactosidase upon recognition of peptide-MHC class I complexes and has been described previously (3, 6). T cell hybridomas were maintained in complete RPMI plus 10% FCS and 0.05 mM 2-ME. Activation was measured using the luminescent substrate Galactolight Plus (Applied Biosystems, Foster City, Calif.) according to the manufacturer's instructions. Light intensity was measured using a TopCount NXT plate reader (Perkin Elmer, Waltham, Mass.).
(§2) To assay […] (SEQ ID NO: 2) presentation using a flow cytometric or cell-based method, we pulsed LK^b cells in a 15 mL conical at 37° C. for 2 hrs. Following this incubation, cells were washed once with PBS and then subjected to detection using flow cytometry or added to B3Z cells at an effector to target ratio of 1:1.
(§3) […] (SEQ ID NO: 2), an epitope derived from ovalbumin that is presented in the context of the murine MHCI molecule H-2 Kb, was measured using two methods. One method utilized a TCR-like antibody termed 25.D1.16, also referred to as “Angel”, that recognize […] (SEQ ID NO: 2)/MHCI complex. In addition, we assessed presentation using the B3Z, […] (SEQ ID NO: 2) peptide specific CTL hybridoma, which expresses β-galactosidase under the NFAT (CTL signaling molecule) promoter, which upon activation express beta-gal measured by a light emitting substrate.

[2] = test system: LK^b cells; experiment: Flow cytometry measure of […] presentation (25.D1.16 antibody); assay type: cell-based, mouse; settings: for processing and presentation of SIINFEKL from GNP, flow cytometric method: LKb cells pulsed 2 h with GNP equivalent to 1, 0.1 or 0.01 ug/mL peptide, FIG. 1A-D
Description: as §1
In order to analyze epitope linkage to nanoparticles, we first optimized a readout assay for the presentation of the epitope released from the nanoparticle. For this purpose, […] (SEQ ID NO: 2) presentation in LK^b cells was evaluated. As mentioned earlier, more than one reagent exists. Of the two methods tested, one is flow cytometry-based, while the other is cell-based. The flow cytometry-based method begins with pulsing LK^b cells with differing amounts of […] (SEQ ID NO: 2) peptide. After allowing enough time for peptide binding to surface K^b molecules, cells were washed and incubated with the 25.D1.16 antibody which is specific to the […]:K^b (SEQ ID NO: 2) complex. Next, the cells were secondarily labelled and subjected to flow cytometry analysis using unpulsed cells as the background reading.
LK^b cells were treated with varying amounts of […] (SEQ ID NO: 2) peptides. […] Cells were then washed two times in PBS and incubated for 30 min on ice with FITC-labeled goat anti-mouse IgG secondary antibody (Caltag Laboratories, Burlingham, Calif.). Finally, cells were washed two times with PBS and resuspended in PBS+0.1% BSA for flow cytometry on a Guava EasyCyte Plus Flow Cytometer (Millipore, Billerica, Mass.) and analyzed using the accompanying software.
as §2, §3

[3] = Aggregation and solubilisation of nanoparticle preparations; assay type: physicochemical; settings: for aggregation of NP after repeat production: 75% methanol in the synthesis stage; for solubility of aggregates in alkali: 300 mM NaOH; for aggregation of NP after production: first production (95% methanol); for solubility of aggregates: water, 10% acetic acid, PBS, DMSO or DMF
Description: The following method was used; 1.5 μmole peptide was dissolved in 2 ml methanol, followed by the addition of 30 μmole GlcC2 in 200 μl methanol, and 116 μl of aqueous gold chloride containing 10 μmole Au. The sample was vortexed for 30 sec, shaken for approximately 5 min and then under rapid vortexing for a total of 30 sec 200 μl of 1M NaBH4 was added, tubes were sealed and then gently shaken for 1.5 h.
Samples were bench spun the supernatant removed and the dark pellet dissolved in 2 ml water, and then transferred to a 10 kDa vivaspin for a total of 4 times 2 ml water washes each of 8 min at 5 Krpm.
Nanoparticles (NPs) were removed from the vivaspins and made up to 500 μl with water, they were then subjected to 15 Krpm bench spin to remove any large aggregates.
NP's 2-5 were produced by a variation using 75% methanol not 95% in the synthesis stage.

Substance | processing and presentation of SIINFEKL from GNP, CTL-based method [1] | processing and presentation of SIINFEKL from GNP, flow cytometric method [2] | aggregation of NP after repeat production [3] | solubility of aggregates in alkali [3] | aggregation of NP after production [3] | solubility of aggregates [3] | also measured
GNP 8: gold nanoparticle with GlcC2 ligands and peptide ligand 8, HS(CH2)2-CONH-FLAAYSIINFEKL ([Mpa]FLAAYSIINFEKL; numbers in words are those of the source; also: on gold nanoparticle with GlcC2 ligands) | good processing and presentation | good processing and presentation |  |  |  |  | presentation from preparations lacking free peptide, B3Z assay ([1]; Sephadex G-50 purified new GNP vs old GNP, overnight incubation, FIG. 3F): confirmed; presentation from preparations lacking free peptide, flow cytometry ([2]; Sephadex G-50 purified new GNP vs old GNP, FIGS. 3C-E): work just as well as those containing peptide
GNP 12: gold nanoparticle with GlcC2 ligands and peptide ligand 12, HS—(CH2)10-(CH2OCH2)7-CONH-FLAAYSIINFEKL ({HS‑(CH2)10‑(CH2OCH2)7‑CO}-FLAAYSIINFEKL; also: on gold nanoparticle with GlcC2 ligands) | good processing and presentation | good processing and presentation |  |  |  |  | 
NP2: gold nanoparticle with GlcC2 ligands and peptide ligand 2, SIINFEKL-N—(CH2)2-SH |  |  | ‘normal’ NP |  |  |  | 
NP 3: gold nanoparticle with GlcC2 ligands and peptide ligand 3, FLSIINFEKL-N—(CH2)2-SH (FLSIINFEKL-Cysteamide; also: on gold nanoparticle with GlcC2 ligands) |  |  | formed aggregates | total NP solubilisation | large near complete aggregation | not soluble | 
NP 4: gold nanoparticle with GlcC2 ligands and peptide ligand 4, FLAAYSIINFEKL-N—(CH2)2-SH (FLAAYSIINFEKL-Cysteamide; also: on gold nanoparticle with GlcC2 ligands) |  |  | formed aggregates | total NP solubilisation | large near complete aggregation | not soluble | 
SIINFEKL (listed as Gallus gallus) [reference compound] |  |  |  |  |  |  | limit of detection ([1]; LK^b cells pulsed with free SIINFEKL peptide, co-incubated with B3Z overnight, luminescent substrate): approximately 5 ng/mL; lowest pulse concentration at which surface SIINFEKL:K^b complexes were detected ([2]; LK^b cells pulsed with free SIINFEKL peptide, unpulsed cells as background): 5 ng/mL
